Results reported in US20220125947A1 (published 2022).

T1: T cell receptor (TCR) Vγ9 (TRGV9) (human, UniProt Q99603 21-122)
T1 chain (looked up): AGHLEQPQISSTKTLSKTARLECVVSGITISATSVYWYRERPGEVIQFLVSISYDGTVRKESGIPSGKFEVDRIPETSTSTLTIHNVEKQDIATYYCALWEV

T2: T cell receptor (TCR) Vγ9 (TRGV9) (human, UniProt Q99603 21-122)
T2 chain (looked up): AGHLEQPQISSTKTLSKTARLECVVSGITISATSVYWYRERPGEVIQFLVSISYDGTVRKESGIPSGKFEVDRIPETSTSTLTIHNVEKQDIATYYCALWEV


Molecular target: T1, T cell receptor (TCR) Vγ9 (TRGV9)
Experiment: cell-based or functional assay
For CD25+ (Vg9+ cells), flow staining in this document: test concentration or dose not given here.
For CD71+ (Vg9+ cells), flow staining in this document: test concentration or dose not given here.
For Granzyme B, Luminex (supernatant) in this document: unit not given here.
For IL6, Luminex (supernatant) in this document: unit not given here.
For TNFα, Luminex (supernatant) in this document: unit not given here.

Binder | CD25+ (Vg9+ cells), flow staining | CD71+ (Vg9+ cells), flow staining | Granzyme B, Luminex (supernatant) | IFNγ, Luminex (supernatant) | IL6, Luminex (supernatant) | TNFα, Luminex (supernatant) | Vg9 T cell %, flow staining
VG9B384 (antibody, human IgG1, lambda, V domains shown) VH: QVQLQESGPALVKPTQTLTLTCTFSGFSLSSSGMCVSWIRQPPGKALEWLTLIDWFDDKYYSTSLKTRLTISKDTSKNQVVLTMTNMDPVDTATYYCARIRGTGAYYYGLDVWGQGTMVTVSS VL: SYELMQPPSVSVSPGQTASITCSGNELGDKYASWYQQQPGQSPVLVIYQDNKRPSGIPERFSGSNSGNTATLTISGTQAMDEADYYCQAWDSSKVVFGGGTKLTVLG | 26.4% | 89.9% | 2300 | 1100 | 610 | 3740 | 3.4%
VG9B67 (antibody, human IgG1, kappa, V domains shown) VH: EVQLVESGGGLVKPGGSLRLSCAASGFTFSSYTMNWVRQAPGKGLEWVSSISSSSSYIDYAESVKGRFTISRDNAKNSLYLQMNSLRAEDTAVYYCARDGDILATIRGSFDYWGQGTTVTVSS VL: DIVMTQTPLSLPVTPGEPASISCRSSQSLLDSDAGNTYLDWYLQKPGQSPQLLIYTLSYRASGVPDRFSGSGSGTDFTLKISRVEAEDVAIYYCMQRIEFPITFGQGTKVEIKR | 28.5% | 87.4% | 2550 | 972 | 365 | 144 | 14%
VG9B127 (antibody, human IgG1, kappa, V domains shown) VH: QVQLVESGGGLVKPGGSLRLSCTASGFTFGAYTMNWVRQAPGKGLEWVSSISSSSSYIDFAESVKGRFTISRDNAKNSLYLQMISLRAEDTAVYYCARDGDIVSTIRGSFDYWGQGALVTVSS VL: EIVMTQSPLSLPVTPGEPASISCRSSQSLLDSDDGNTYLDWYLQKPGQSPQLLIYTLSYRASGVPDRFSGSGSGTDFTLKISRVEAEDVGIYYCMQRIEFPITFGQGTKVEIKR | 37.3% | 96.5% | 2450 | 1170 | 348 | 709 | 11.2%
VG9B33 (antibody, human IgG1, kappa, V domains shown) VH: EVQLVESGGGLVKPGGSLRLSCAASGFTFSSYNMNWVRQAPGKGLEWVSSISTSSSYIYYADSVKGRFTISRDNAKNSLYLQMNGLRAEDTAVYYCARDTSVTKYPDTFDIWGQGTMVTVSS VL: DIVMTQSPSSLSASVGDRVTITCRASQDINNYLAWFQQKPGKVPNLLIYGASTLQSGVPSRFTGSGSGTDFTLTISSLQPEDVATYYCQKYNSAPFTFGPGTKVDIKR | 28% | 95.2% | 1990 | 749 | 240 | 85 | 14%
VG9B403 (antibody, human IgG1, kappa) heavy: not shown light: DIVMTQSPGTLSLSPGDRATLSCRASQSVASSYLAWYQQKPGQSPRLLIYGASSRATGIPDRFSGSGSGTDFTLTISRLEPEDFAVYYCQQYGSSPPYTFGQGTKVEIKRTVAAPSVFIFPPSDEQLKSGTASVVCLLNNFYPREAKVQWKVDNALQSGNSQESVTEQDSKDSTYSLSSTLTLSKADYEKHKVYACEVTHQGLSSPVTKSFNRGEC | 36.2% | 97.5% | 3020 | 1390 | 175 | 102 | 7.2%
VG9B137 (antibody, human IgG1, kappa, V domains shown) VH: EVQLVESGGGLVKPGGSLRLSCAAFGITFSSYSMDWVRQAPGRGLEWVSSIGSSSSYIFYADSVKGRFTISRDNAKNSLYLQMNSLRAEDTAVYYCATSYSWNYGGAFDIWGQGTMVTVSS VL: not shown | 8.7% | 77.3% | 36 | 44 | 8 | 30 | 3.6%

Results, then the binder that gave them:

CD25+ (Vg9+ cells), flow staining | CD71+ (Vg9+ cells), flow staining | Granzyme B, Luminex (supernatant) | IFNγ, Luminex (supernatant) | IL6, Luminex (supernatant) | TNFα, Luminex (supernatant) | Vg9 T cell %, flow staining | Binder
29.1% | 89.4% | 3890 | 2580 | 607 | 188 | 7.8% | VG9B36 (antibody, human IgG1, kappa, V domains shown) VH: QVQLVESGGGLVKPGGSLRLSCASSGFTFSSYGMYWVRQAPGKGLEWVSSISTGSSYIYYADSVKGRFTISRDNAKNSLYLQMNSLRAEDTAVYYCARDKGLAVTGYIMDVWGQGTTVTVSS VL: EIVLTQSPSSLSASVGDRVTITCQASQDISNYLNWYQQKPGKAPKLLIYDASNLETGVPSRFSGSGSGTDFTFTISSLQPEDIAIYYCQQYDNLPMYTFGQGTKVEIKR
45.4% | 98.8% | 3030 | 1150 | 587 | 198 | 14.4% | VG9B44 (antibody, human IgG1, kappa, V domains shown) VH: QVQLQQSGPGLVKPSQTLSLTCAISGDSVSSNSAAWNWIRQSPSRGLEWLGRTYYRSKWYNDYPISVKSRISINPDTSKNQFSLQLNSVTPEDTAVYYCARESGSYYTDGFDIWGQGTMVTVSS VL: DIQMTQSPSFLSASVGDRVTITCRASQGISSYLAWYQQKPGKAPKLLIYAASTLQSGVPSRFSGSGSGTEFTLTISSLQPEDFATYYCQEFNSYPYTFGQGTKLEIKR
44.9% | 98.8% | 5800 | 2830 | 1960 | 229 | 13.3% | VG9B413 (antibody, human IgG1, kappa) heavy: not shown light: EIVMTQSPGTLSLSPGDRATLSCRASQSVASSYLAWYQQKPGQSPRLLIYGASSRATGIPDRFSGSGSGTDFTLTISRLEPEDFAVYYCQQYGSSPPYTFGQGTKVEIKRTVAAPSVFIFPPSDEQLKSGTASVVCLLNNFYPREAKVQWKVDNALQSGNSQESVTEQDSKDSTYSLSSTLTLSKADYEKHKVYACEVTHQGLSSPVTKSFNRGEC
42.4% | 93.6% | 3370 | 1380 | 400 | 7320 | 5.2% | VG9B191 (antibody, human IgG1, lambda, V domains shown) VH: EVQLVQSGGGLVKPGGSLRLSCAASGFTFSRYSMNWVRQAPGKGLEGVSSISSSSSYIYYADSVKGRFTISRDNAKNSLYLQMNSLRAEDTAVYYCARDGPTVNWDYYFDLWGRGTLVTVSS VL: QSVLTQPPSVSAAPGQKVTISCSGSSSNIGNNYVSWYQQLPGTAPKLLIYDNNKRPSGIPDRFSGSKSGTSATLGITGLQTGDEADYYCGTWDSSLSTSVVFGGGTKLTVLG
45.5% | 99.1% | 4500 | 2370 | 433 | 376 | 9.5% | VG9B402 (antibody, human IgG1, kappa) heavy: not shown light: DIQMTQSPSSVSASVGDRVTITCRASQGINSWLAWYQQKPGNAPKLLIYAASSLQSGVPSRFSGIGSGTDFIFTISSLQPEDFASYYCQQANSFPWTFGQGTKVDIKRTVAAPSVFIFPPSDEQLKSGTASVVCLLNNFYPREAKVQWKVDNALQSGNSQESVTEQDSKDSTYSLSSTLTLSKADYEKHKVYACEVTHQGLSSPVTKSFNRGEC
9.7% | 70.3% | 481 | 57 | 54 | 329 | 2.7% | VG9B162 (antibody, human IgG1, lambda, V domains shown) VH: QVQLVESGAEVTKPGASVKVSCKASGYTFTGDYMHWVRQAPGQGLEWMGWINPNSGYTNYAQKFQGRVTMTRDTSISTAYMELSRLRSDDTAVYYCAREGDAFDVWGQGTMVTVSS VL: QLVLTQSSSASGSPGQSVTISCTGTSSDVGGYNYVSWYQQHPGKAPKLMIYEVSKRPSGVPDRFSGSKSGNTASLTVSGLQAEDEADYYCNSYAGSNNFEVFGGGTKLTVLG

Molecular target: T2, T cell receptor (TCR) Vγ9 (TRGV9)
Experiment: cell-based or functional assay

CD25+ (Vg9+ cells), flow staining | CD71+ (Vg9+ cells), flow staining | Granzyme B, Luminex (supernatant) | IFNγ, Luminex (supernatant) | IL6, Luminex (supernatant) | TNFα, Luminex (supernatant) | Vg9 T cell %, flow staining | Binder
29.9% | 98.5% | 3700 | 1580 | 440 | 173 | 7.8% | VG9B469 (antibody, human IgG1, kappa, V domains shown) VH: EVQLVESGGGLVKPGGSLRLSCAASGFTFSHYDMNWVRQAPGKGLEWVSSISSSSSYIFYADSVKGRFTISRDNAKNSLLLQMNSLRAEDTAVYHCARDRGVGDTSDYYSFGLDVWGQGTMVTVSS VL: DIVMTQSPGTLSLSPGERATLSCRASQNVSSTYLAWYQQKPGQAPRLLIYGACSRATGIPDRFSGSGSGTDFTLTISRLEPEDYAVYYCQQYGSSPPYTFGRGTKLEIKR
23% | 91.2% | 1100 | 324 | 199 | 66 | 3.6% | VG9B198 (antibody, human IgG1, lambda, V domains shown) VH: QVQLQESGPGLVKPSETLSLTCTVSGDSISSIYWSWIRQSAGKGLEWIGRIYTTDITNYNPSLKSRVTMSADTSKNQLSLKLTSVTAADTAVYYCAKNGYSYGGFNYWGQGTLVTVSS VL: QSVLTQPPSVSGAPGQRVTISCTGSSSNIGAGYDVHWYQRLPGTAPKLLIYGDSYRPSGVPDRFSGSKSGTSASLAITGLQAEDEADYYCQSYDSSLSVVVFGGGTKLTVLG
26% | 87.4% | 965 | 364 | 100 | 2110 | 4.1% | VG9B463 (antibody, human IgG1, lambda, V domains shown) VH: EVQLVESGGGLVKPGGSLRLSCSASGFTFSNYDMNWVRQAPGKGLEWVSSISSSSSYIYYADSVKGRFTISRDNAKNSLYLQMNSLRAEDTAVYHCARDVGVTTDYYYYGMDVWGQGTTVTVSS VL: QPVLTQSSSASGTPGQRVTISCSGSSSNIGSNTVNWYQQFPGTAPKLLIYTNTQRPSGVPDRFSGSKSGTLVSLAISGLQSEDEADYYCAAWDDSLNAWVFGGGTKLTVLG
